Results: patent publication US20090082410A1

Target: angiotensin II type 1A receptor
Test: cell-based or functional assay

arrestinGFP translocation response (Fgrains, INCell Analyzer), U2OS cells, 1:4 dilution of GRK2-C20 baculovirus, no ligand: 305 Fgrains | arrestinGFP translocation response (Fgrains, INCell Analyzer), U2OS cells, 1:256 dilution of GRK2-C20 baculovirus, no ligand: 77 Fgrains | arrestinGFP translocation response (Fgrains, INCell Analyzer), U2OS cells, no added GRK2-C20, no ligand: 18 Fgrains
Substance: arrestin-GFP
